Positions count from the first letter of the chain named. Names may count otherwise. Values belong to the binder of their own block, whether it stands above or below them.
What was measured:
[1] = biological target: T1, IL-17RA residues 361-866 (SEFIR domain and SEFEX, as part of the IL-17RB-RA fusion) (human, UniProt Q96F46-1 361-866); experiment: cryo-EM structure
T1 sequence: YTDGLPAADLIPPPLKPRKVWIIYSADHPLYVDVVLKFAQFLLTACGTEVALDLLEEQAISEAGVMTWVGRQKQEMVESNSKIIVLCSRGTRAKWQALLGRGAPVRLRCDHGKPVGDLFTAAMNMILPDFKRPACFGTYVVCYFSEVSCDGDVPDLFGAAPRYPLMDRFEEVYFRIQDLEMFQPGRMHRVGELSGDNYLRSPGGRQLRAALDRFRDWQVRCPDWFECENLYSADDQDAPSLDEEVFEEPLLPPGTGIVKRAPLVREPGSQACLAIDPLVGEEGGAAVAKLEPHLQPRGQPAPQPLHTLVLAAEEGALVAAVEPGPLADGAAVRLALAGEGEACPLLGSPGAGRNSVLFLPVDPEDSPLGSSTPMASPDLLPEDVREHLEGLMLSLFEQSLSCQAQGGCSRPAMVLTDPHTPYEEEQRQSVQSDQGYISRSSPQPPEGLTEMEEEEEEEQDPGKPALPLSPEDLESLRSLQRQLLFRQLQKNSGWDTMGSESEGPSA

[2] = biological target: T2, ACT1 residues 372-574 (wild type) (human, UniProt O43734-1 372-574); experiment: negative-stain EM
T2 sequence: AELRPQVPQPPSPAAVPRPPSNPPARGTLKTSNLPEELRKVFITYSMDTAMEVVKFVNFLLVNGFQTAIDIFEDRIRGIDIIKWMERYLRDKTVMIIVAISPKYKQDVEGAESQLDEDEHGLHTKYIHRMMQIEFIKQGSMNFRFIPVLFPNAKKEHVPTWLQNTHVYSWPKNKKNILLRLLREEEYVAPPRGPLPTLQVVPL

[3] = biological target: T2, ACT1 residues 372-574 (wild type); experiment: SEC

B1: IL-17RB residues 328-484 (SEFIR domain, as part of the IL-17RB-RA fusion) (domain or fragment)
chain: LLPPIKVLVVYPSEICFHHTICYFTEFLQNHCRSEVILEKWQKKKIAEMGPVQWLATQKKAADKVVFLLSNDVNSVCDGTCGKSEGSPSENSQDLFPLAFNLFCSDLRSQIHLHKYVVVYFREIDTKDDYNALSVCPKYHLMKDATAFCAELLHVKQ
binding result [1]: binds

B2: IL-17RC-RA fusion (IL-17RC residues 510-705, 3x(GGGS) linker, IL-17RA residues 361-866) (other)
chain: ARGRAALLLYSADDSGFERLVGALASALCQLPLRVAVDLWSRRELSAQGPVAWFHAQRRQTLQEGGVVVLLFSPGAVALCSEWLQDGVSGPGAHGPHDAFRASLSCVLPDFLQGRAPGSYVGACFDRLLHPDAVPALFRTVPVFTLPSQLPDFLGALQQPRAPRSGRLQERAEQVSRALQPALDSYFHPPGTPAPGGGGSGGGSGGGSYTDGLPAADLIPPPLKPRKVWIIYSADHPLYVDVVLKFAQFLLTACGTEVALDLLEEQAISEAGVMTWVGRQKQEMVESNSKIIVLCSRGTRAKWQALLGRGAPVRLRCDHGKPVGDLFTAAMNMILPDFKRPACFGTYVVCYFSEVSCDGDVPDLFGAAPRYPLMDRFEEVYFRIQDLEMFQPGRMHRVGELSGDNYLRSPGGRQLRAALDRFRDWQVRCPDWFECENLYSADDQDAPSLDEEVFEEPLLPPGTGIVKRAPLVREPGSQACLAIDPLVGEEGGAAVAKLEPHLQPRGQPAPQPLHTLVLAAEEGALVAAVEPGPLADGAAVRLALAGEGEACPLLGSPGAGRNSVLFLPVDPEDSPLGSSTPMASPDLLPEDVREHLEGLMLSLFEQSLSCQAQGGCSRPAMVLTDPHTPYEEEQRQSVQSDQGYISRSSPQPPEGLTEMEEEEEEEQDPGKPALPLSPEDLESLRSLQRQLLFRQLQKNSGWDTMGSESEGPSA
binding result [2]: binds

Next, values leading:

binding result [1]: binds
B3: ACT1 residues 372-574 Y558F (domain or fragment)
chain: T2 sequence with Y187F

binding result [3]: binds
B4: IL-17RB-RA fusion (IL-17RB residues 328-484, 16-residue linker, IL-17RA residues 361-866) (other)
chain: LLPPIKVLVVYPSEICFHHTICYFTEFLQNHCRSEVILEKWQKKKIAEMGPVQWLATQKKAADKVVFLLSNDVNSVCDGTCGKSEGSPSENSQDLFPLAFNLFCSDLRSQIHLHKYVVVYFREIDTKDDYNALSVCPKYHLMKDATAFCAELLHVKQGGGSGGGSGGGSGGGSYTDGLPAADLIPPPLKPRKVWIIYSADHPLYVDVVLKFAQFLLTACGTEVALDLLEEQAISEAGVMTWVGRQKQEMVESNSKIIVLCSRGTRAKWQALLGRGAPVRLRCDHGKPVGDLFTAAMNMILPDFKRPACFGTYVVCYFSEVSCDGDVPDLFGAAPRYPLMDRFEEVYFRIQDLEMFQPGRMHRVGELSGDNYLRSPGGRQLRAALDRFRDWQVRCPDWFECENLYSADDQDAPSLDEEVFEEPLLPPGTGIVKRAPLVREPGSQACLAIDPLVGEEGGAAVAKLEPHLQPRGQPAPQPLHTLVLAAEEGALVAAVEPGPLADGAAVRLALAGEGEACPLLGSPGAGRNSVLFLPVDPEDSPLGSSTPMASPDLLPEDVREHLEGLMLSLFEQSLSCQAQGGCSRPAMVLTDPHTPYEEEQRQSVQSDQGYISRSSPQPPEGLTEMEEEEEEEQDPGKPALPLSPEDLESLRSLQRQLLFRQLQKNSGWDTMGSESEGPSA
